From patent US20160185853A1 (UNIVERSITY OF SOUTHERN CALIFORNIA, published 2016)

Tests used:
[1] = target: T1, GRP78-His (human GRP78 amino acids 1-650, without KDEL motif, hexahistidine tag on C-terminus) (human, UniProt P11021 19-650); test: competition ELISA on GRP78-His; dilution series of unlabelled antibody against a fixed concentration of biotinylated murine MAb159 [panel A]
T1 construct: also called GRP78-His polypeptide

HSP70 = target: T2, HSP70 (UniProt P0DMV8 2-641); test: Western blot of MCF7 whole cell lysates
T2 construct: also called GRP78's closest paralogue

human GRP78 = target: T3, human GRP78 (human, UniProt P11021 19-654); test: Scatchard assay
T3 construct: also called BiP/HSPA5; antigen

mouse GRP78 = target: T4, mouse GRP78 (mouse, UniProt P20029 20-655); test: immunoblot of MEF lysates; band absent after deletion of Grp78
T4 construct: Denatured protein on an immunoblot; also called GRP78 protein band in mouse embryo fibroblast (MEF) lysates

[2] = target: T5, Flag tagged GRP78 (without KDEL) (human, UniProt P11021 19-650, surface biotinylated with Sulfo-NHS-LC-Biotin); test: surface biotinylation, avidin purification, anti-Flag immunoprecipitation, Western blot (293T cells)
T5 construct: also called surface GRP78 (overexpressed); not shown: Flag tag

B1: humanized MAb159 (antibody, V domains shown)
VH: QAQLVQSGAEVKKPGASVKVSCKASGYTFTSYWMHWVRQAPGQGLEWIGEINPGNGRTNYNEKFKRRVTITVDKSASTAYMELSSLRSEDTAVYYCATLYYYDGTYDYWGQGTTVTVSS
VL: DIVMTQSPSFLSASVGDRVTITCKASQNVGTDVAWYQQKPGKAPKALIYWASNRFTGVPDRFTGSGSGTDFTLTISSLQSEDVADYFCQQYSSSPWTFGGGTKVEIK
notes: It carries a human Fc (detected with a human Fc specific antibody)
Q: Does B1 bind [1]?
A: binds

B2: MAb159 (murine monoclonal antibody) (antibody, V domains shown)
VH: QAQLQQPGAELVKPGASVRLSCKASGYTFTSYWMHWVKQRPGQGLEWIGEINPGNGRTNYNEKFKRKATLTVDKSSSTAYMQLNSLTSEDSAVYYCATLYYYDGTYDYWGQGTTLTVSS
VL: DIVMTQSHKFMSTSVGDRVSVTCKASQNVGTDVAWYQQKPGQSPKALIYWASNRFTGVPDRFTGSGSGTDFTLTINNVQSEDLVDYFCQQYSSSPWTFGGGTKLEIK
notes: Whole murine monoclonal antibody from a hybridoma, purified on protein G; also called murine MAb159; parental murine antibody
Q: Does B2 bind (HSP70)?
A: no binding (tested: 1 µg/ml primary antibody)

Q: And the Kd (human GRP78)?
A: 1.7 nM

Q: Does B2 bind (mouse GRP78)?
A: binds

B3: ERK1 (enzyme, UniProt P27361 2-379, looked up)
chain: AAAAAQGGGGGEPRRTEGVGPGVPGEVEMVKGQPFDVGPRYTQLQYIGEGAYGMVSSAYDHVRKTRVAIKKISPFEHQTYCQRTLREIQILLRFRHENVIGIRDILRASTLEAMRDVYIVQDLMETDLYKLLKSQQLSNDHICYFLYQILRGLKYIHSANVLHRDLKPSNLLINTTCDLKICDFGLARIADPEHDHTGFLTEYVATRWYRAPEIMLNSKGYTKSIDIWSVGCILAEMLSNRPIFPGKHYLDQLNHILGILGSPSQEDLNCIINMKARNYLQSLPSKTKVAWAKLFPKSDSKALDLLDRMLTFNPNKRITVEEALAHPYLEQYYDPTDEPVAEEPFTFAMELDDLPKERLKELIFQETARFQPGVLEAP
notes: Printed only as ERK1/2; also called ERK1/2; Erk1/2
Q: Does B3 bind [2]?
A: no binding
